From patent publication US20240067714A1

Key:
FcγRIIIB (CD16b) [1] = biological target: FcγRIIIB (CD16b) (UniProt O75015); test: SPR, against HUMIRA
Human TNFα (human) [2] = biological target: Human TNFα (human) (UniProt P01375); test: SPR, human TNFα, relative to HUMIRA
Macaque TNFα (macaque) [3] = biological target: Macaque TNFα (macaque) (UniProt P79337); test: ELISA, macaque TNFα, relative to HUMIRA
Human TNFα (human) [4] = biological target: Human TNFα (human) (UniProt P01375); test: Binding ELISA to hTNFα
FcγRIIB (CD32b) [5] = biological target: FcγRIIB (CD32b) (UniProt P31994); test: SPR, steady state model, against HUMIRA
FcRn (FCGRT&B2M) [6] = biological target: FcRn (FCGRT&B2M) (UniProt P55899); test: SPR, steady state model, against HUMIRA
FcγRIIA (CD32a, H167) [7] = biological target: FcγRIIA (CD32a, H167) (UniProt P12318); test: SPR, steady state model, against HUMIRA
Human TNFα (human) [8] = biological target: Human TNFα (human) (UniProt P01375); test: ELISA, human TNFα, relative to HUMIRA
FcγRIIB (CD32b) [9] = biological target: FcγRIIB (CD32b) (UniProt P31994); test: SPR, steady state model, Mean
FcRn (FCGRT&B2M) [10] = biological target: FcRn (FCGRT&B2M) (UniProt P55899); test: SPR, steady state model, Mean
FcγRIIA (CD32a, H167) [11] = biological target: FcγRIIA (CD32a, H167) (UniProt P12318); test: SPR, steady state model, Mean
Macaque TNFα (macaque) [12] = biological target: Macaque TNFα (macaque) (UniProt P79337); test: SPR, macaque TNFα, relative to HUMIRA
FcγRIIIB (CD16b) [13] = biological target: FcγRIIIB (CD16b) (UniProt O75015); test: SPR, Mean (one KD printed)
FcγRI (CD64) [14] = biological target: FcγRI (CD64) (UniProt P12314); test: SPR, heterogenous ligand model, Mean KD1
FcγRIIIA (CD16a, F167) [15] = biological target: FcγRIIIA (CD16a, F167) (UniProt P08637); test: SPR, heterogenous ligand model, Mean KD1
FcγRIIIA (CD16a, V167) [16] = biological target: FcγRIIIA (CD16a, V167) (UniProt P08637); test: SPR, heterogenous ligand model, Mean KD1
FcγRI (CD64) [17] = biological target: FcγRI (CD64) (UniProt P12314); test: SPR, heterogenous ligand model, KD1, against HUMIRA
FcγRIIIA (CD16a, F167) [18] = biological target: FcγRIIIA (CD16a, F167) (UniProt P08637); test: as above
FcγRIIIA (CD16a, V167) [19] = biological target: FcγRIIIA (CD16a, V167) (UniProt P08637); test: as above
Human TNFα (human) [20] = biological target: Human TNFα (human) (UniProt P01375); test: cell-based or functional assay
FcγRI (CD64) [21] = biological target: FcγRI (CD64) (UniProt P12314); test: SPR, heterogenous ligand model, KD2, against HUMIRA
FcγRIIIA (CD16a, F167) [22] = biological target: FcγRIIIA (CD16a, F167) (UniProt P08637); test: as above
FcγRIIIA (CD16a, V167) [23] = biological target: FcγRIIIA (CD16a, V167) (UniProt P08637); test: as above
FcγRI (CD64) [24] = biological target: FcγRI (CD64) (UniProt P12314); test: SPR, heterogenous ligand model, Mean KD2
FcγRIIIA (CD16a, F167) [25] = biological target: FcγRIIIA (CD16a, F167) (UniProt P08637); test: SPR, heterogenous ligand model, Mean KD2
FcγRIIIA (CD16a, V167) [26] = biological target: FcγRIIIA (CD16a, V167) (UniProt P08637); test: SPR, heterogenous ligand model, Mean KD2
Macaque TNFα (macaque) [27] = biological target: Macaque TNFα (macaque) (UniProt P79337); test: SPR, macaque TNFα, reference
Macaque TNFα (macaque) [28] = biological target: Macaque TNFα (macaque) (UniProt P79337); test: ELISA, macaque TNFα, reference

How did the Fold change (KD(HUMIRA)/KD(A-8486S)) (FcγRIIIB (CD16b) [1]) turn out when “Adalimumab K84N-D86N (A-8486S) (antibody)” was run?
The Fold change (KD(HUMIRA)/KD(A-8486S)) was 10.9 fold.

And the Rel. binding affinity (KD(HUMIRA)/KD(A-8486S)*100) (FcγRIIIB (CD16b) [1])?
The Rel. binding affinity (KD(HUMIRA)/KD(A-8486S)*100) was 1090%.

What about the Rel. binding affinity (Human TNFα (human) [2]) of the same substance?
Its Rel. binding affinity is 84%.

What about the Rel. binding (Macaque TNFα (macaque) [3]) of the same substance?
The Rel. binding was 99%.

What about the Normalized EC50 vs HUMIRA (Human TNFα (human) [4]) of the same substance?
Its Normalized EC50 vs HUMIRA is 116%.

What about the Fold change (KD(HUMIRA)/KD(A-8486S)) (FcγRIIB (CD32b) [5]) of the same substance?
Its Fold change (KD(HUMIRA)/KD(A-8486S)) is 1.4 fold.

And the Rel. binding affinity (KD(HUMIRA)/KD(A-8486S)*100) (FcγRIIB (CD32b) [5])?
Its Rel. binding affinity (KD(HUMIRA)/KD(A-8486S)*100) is 138%.

And the Fold change (KD(HUMIRA)/KD(A-8486S)) (FcRn (FCGRT&B2M) [6])?
The Fold change (KD(HUMIRA)/KD(A-8486S)) was 0.7 fold.

And the Rel. binding affinity (KD(HUMIRA)/KD(A-8486S)*100) (FcRn (FCGRT&B2M) [6])?
The Rel. binding affinity (KD(HUMIRA)/KD(A-8486S)*100) was 71%.

What about the Fold change (KD(HUMIRA)/KD(A-8486S)) (FcγRIIA (CD32a, H167) [7]) of the same substance?
Its Fold change (KD(HUMIRA)/KD(A-8486S)) is 0.9 fold.

What about the Rel. binding affinity (KD(HUMIRA)/KD(A-8486S)*100) (FcγRIIA (CD32a, H167) [7]) of the same substance?
The Rel. binding affinity (KD(HUMIRA)/KD(A-8486S)*100) was 92%.

What about the Rel. binding (Human TNFα (human) [8]) of the same substance?
Its Rel. binding is 86%.

What about the Kd (FcγRIIB (CD32b) [9]) of the same substance?
Its Kd is 2200 nM.

What about the Kd (FcRn (FCGRT&B2M) [10]) of the same substance?
Its Kd is 1100 nM.

And the Kd (FcγRIIA (CD32a, H167) [11])?
Its Kd is 785 nM.

And the Rel. binding affinity (Macaque TNFα (macaque) [12])?
The Rel. binding affinity was 77%.

And the Kd (FcγRIIIB (CD16b) [13])?
The Kd was 152 nM.

What about the Kd (FcγRI (CD64) [14]) of the same substance?
Its Kd is 0.326 nM.

And the Kd (FcγRIIIA (CD16a, F167) [15])?
Its Kd is 12.2 nM.

What about the Kd (FcγRIIIA (CD16a, V167) [16]) of the same substance?
The Kd was 2.69 nM.

And the Fold change (KD(HUMIRA)/KD(A-8486S)) (FcγRI (CD64) [17])?
The Fold change (KD(HUMIRA)/KD(A-8486S)) was 1.7 fold.

What about the Rel. binding affinity (KD(HUMIRA)/KD(A-8486S)*100) (FcγRI (CD64) [17]) of the same substance?
The Rel. binding affinity (KD(HUMIRA)/KD(A-8486S)*100) was 174%.

And the Fold change (KD(HUMIRA)/KD(A-8486S)) (FcγRIIIA (CD16a, F167) [18])?
The Fold change (KD(HUMIRA)/KD(A-8486S)) was 21.3 fold.

What about the Rel. binding affinity (KD(HUMIRA)/KD(A-8486S)*100) (FcγRIIIA (CD16a, F167) [18]) of the same substance?
Its Rel. binding affinity (KD(HUMIRA)/KD(A-8486S)*100) is 2130%.

What about the Fold change (KD(HUMIRA)/KD(A-8486S)) (FcγRIIIA (CD16a, V167) [19]) of the same substance?
Its Fold change (KD(HUMIRA)/KD(A-8486S)) is 29.8 fold.

And the Rel. binding affinity (KD(HUMIRA)/KD(A-8486S)*100) (FcγRIIIA (CD16a, V167) [19])?
The Rel. binding affinity (KD(HUMIRA)/KD(A-8486S)*100) was 2980%.

What about the L929 apoptosis, Rel. IC50 (Human TNFα (human) [20]) of the same substance?
Its L929 apoptosis, Rel. IC50 is 89%.

What about the Fold change (KD(HUMIRA)/KD(A-8486S)) (FcγRI (CD64) [21]) of the same substance?
Its Fold change (KD(HUMIRA)/KD(A-8486S)) is 1.1 fold.

And the Rel. binding affinity (KD(HUMIRA)/KD(A-8486S)*100) (FcγRI (CD64) [21])?
The Rel. binding affinity (KD(HUMIRA)/KD(A-8486S)*100) was 109%.

And the Fold change (KD(HUMIRA)/KD(A-8486S)) (FcγRIIIA (CD16a, F167) [22])?
The Fold change (KD(HUMIRA)/KD(A-8486S)) was 9 fold.

And the Rel. binding affinity (KD(HUMIRA)/KD(A-8486S)*100) (FcγRIIIA (CD16a, F167) [22])?
The Rel. binding affinity (KD(HUMIRA)/KD(A-8486S)*100) was 902%.

What about the Fold change (KD(HUMIRA)/KD(A-8486S)) (FcγRIIIA (CD16a, V167) [23]) of the same substance?
Its Fold change (KD(HUMIRA)/KD(A-8486S)) is 2.8 fold.

And the Rel. binding affinity (KD(HUMIRA)/KD(A-8486S)*100) (FcγRIIIA (CD16a, V167) [23])?
The Rel. binding affinity (KD(HUMIRA)/KD(A-8486S)*100) was 280%.

And the Kd (FcγRI (CD64) [24])?
Its Kd is 6.27 nM.

And the Kd (FcγRIIIA (CD16a, F167) [25])?
The Kd was 123 nM.

What about the Kd (FcγRIIIA (CD16a, V167) [26]) of the same substance?
The Kd was 27.4 nM.

Adalimumab K84N (A-84S) (antibody) was tested. Which Normalized EC50 vs HUMIRA (Human TNFα (human) [4]) did it give?
Its Normalized EC50 vs HUMIRA is 121%.

HUMIRA (adalimumab) (antibody) was tested. Which Rel. binding affinity (Macaque TNFα (macaque) [27]) did it give?
The Rel. binding affinity was 100%.

And the Kd (FcγRIIB (CD32b) [9])?
The Kd was 3040 nM.

And the Kd (FcRn (FCGRT&B2M) [10])?
The Kd was 778 nM.

What about the Kd (FcγRIIA (CD32a, H167) [11]) of the same substance?
The Kd was 723 nM.

What about the Kd (FcγRIIIB (CD16b) [13]) of the same substance?
Its Kd is 1650 nM.

And the Kd (FcγRI (CD64) [14])?
The Kd was 0.566 nM.

And the Kd (FcγRIIIA (CD16a, F167) [15])?
The Kd was 260 nM.

And the Kd (FcγRIIIA (CD16a, V167) [16])?
Its Kd is 80.1 nM.

What about the Rel. binding (Macaque TNFα (macaque) [28]) of the same substance?
Its Rel. binding is 100%.

What about the Kd (FcγRI (CD64) [24]) of the same substance?
Its Kd is 6.86 nM.

And the Kd (FcγRIIIA (CD16a, F167) [25])?
Its Kd is 1110 nM.

And the Kd (FcγRIIIA (CD16a, V167) [26])?
The Kd was 76.6 nM.
